Reference: patent publication US9931373B2, “Method of reducing cancer cell proliferation by administering recombinant alpha-fetoprotein” (priority 2005, dated 2018)

Key:
resting mouse T-cells = experiment: Control resting splenocytes / resting T-cells treated with rhAFP/CsA; type: cell-based, mouse (CBA)
Protocol: Control resting splenocytes CBA were treated for the same time with combination of rhAFP/CysA (FIG. 10C). Cytostatic effects were assessed by monitoring of cell proliferation by [^3H]-thymidine incorporation.

[1] = system: Human Umbilical Vein Endothelial Cells (HUVEC); experiment: Wound healing assay with HUVEC; type: cell-based; conditions: serum-free medium, 50 μg/ml rhAFP, 18 hrs; HSA as control
Protocol: HUVECs were plated onto the gelatin-coated 24-well plates, and grown for confluence. Than monolayers were wounded by scrapper, and cells were incubated in the serum-free medium with 0.1-0.5 mg/ml of rhAFP or HSA.
To test ability of rhAFP to stimulate regeneration of damaged tissue we established classical wound healing assay with normal Human Umbilical Vein Endothelial Cells (HUVEC) obtained after surgical resection of human vein tissue. HUVEC cells were cultivated in DMEM/F12 medium with addition 10% FBS and 0.1% ECGF on the 60 mm Petri dishes at 37° C. at 5% CO2 atmosphere. HUVECs were plated on gelatin-coated 24-well plates, and grown for confluence, than monolayers were wounded and cells were incubated in serum-free medium with 50 μg/ml rhAFP or 50 μg/ml HSA, healing was observed after 18 hrs incubation. Images of wound healing were taken after staining with crystal violet.

[2] = system: Human mesenchymal stromal/stem adipose tissue cells (ATSC); experiment: Proliferation of adipose tissue stem cells (ATSC), [H3]-thymidine incorporation; type: cell-based; conditions: for Cell proliferation (cpm × 103): 24 h
Text: Human mesenchymal stromal/stem adipose tissue cells (ATSC) were isolated either from liposuction aspirates or from products of the fat deposit removed during the cosmetic surgery. The tissue was mechanically split to the fragments of several cubic millimeters. A suspension of tissue was mixed with type I Collagenase (200 U/ml) and Dispase (30 U/ml) (Sigma) in solution of 50% DMEM (Sigma, D-5523), 50% F12 (Sigma, N-6760), 1% BSA (Sigma), /100 U/ml penicillin and 100 U/ml ampicilline in 1:1 v/v and incubated for 1 hr at 37° C. to with mixing, following by filtering through 40 μm membrane (BD Falcon). The suspension was centrifuged 5 min at 200 g, upper layer was removed, and pellet consisting of separate non-adipose cells was treated by erythrocyte lysis buffer (154 mM NH4Cl, 10 mM KHCO3, 0.1 mM EDTA) during 5 min at 37° C., following by 5 min centrifugation at 300 g. Cell pellet was resuspended in DMEM/10% FBS. Resulting cells were cultured in the same medium in plastic flasks in CO2 incubator (37° C., 5% CO2). When reaching confluence, the cells were passaged by treatment the cell monolayer with 0.25% trypsin/0.02% EDTA. For the purpose of long-time storage, the cells were frozen in the culture medium supplemented by 15-20% FBS and 10% DMSO. Adipose cells were cultivated in DMEM/F12 medium with the addition 10% FBS 0.1% ECGF on 60 mm Petri dishes at 37° C. and 5% CO2. For the passages 0.25% trypsin/0.02% EDTA. solution was used. For the purpose of long-time storage, the cells were frozen in the culture medium supplemented by 15-20% FBS and 10% DMSO. Adipose tissue stem cells (ATSC) were cultivated in DMEM/F12 medium with the addition 10% FBS 0.1% ECGF on 60 mm Petri dishes at 37° C. and 5% CO2. For the passages 0.25% trypsin/0.02% EDTA solution was used. For the purpose of long-time storage, the cells were frozen in the culture medium supplemented by 15-20% FBS and 10% DMSO.
Human donor ATSC were isolated and cultivated as described above, the cells from 2-4 passage were taken in the study. ADSC (3×10^4) were plated in flat-bottom 96-well plates (Costar, USA) in complete medium with 10% FCS, after 18 h the medium was changed onto the medium with 5% human sera and cells were treated with increasing amounts of rhAFP (0-500 μg/ml) for 24 h. The direct effect of rhAFP on proliferation of ATSC was measured by [H^3]-thymidine incorporation. For the last 4 h 1 μCi of methyl-[H^3]-thymidine was added to the cultures.

B1: rhAFP: recombinant human alpha-fetoprotein secreted by yeast Saccharomyces cerevisiae YBS723/pKX, glycosylated, mature human AFP sequence SEQ ID NO:2 (protein, listed as Homo sapiens)
chain: TLHRNEYGIASILDSYQCTAEISLADLATIFFAQFVQEATYKEVSKMVKDALTAIEKPTGDEQSSGCLENQLPAFLEELCHEKEILEKYGHSDCCSQSEEGRHNCFLAHKKPTPASIPLFQVPEPVTSCEAYEEDRETFMNKFIYEIARRHPFLYAPTILLWAARYDKIIPSCCKAENAVECFQTKAATVTKELRESSLLNQHACAVMKNFGTRTFQAITVTKLSQKFTKVNFTEIQKLVLDVAHVHEHCCRGDVLDCLQDGEKIMSYICSQQDTLSNKITECCKLTTLERGQCIIHAENDEKPEGLSPNLNRFLGDRDFNQFSSGEKNIFLASFVHEYSRRHPQLAVSVILRVAKGYQELLEKCFQTENPLECQDKGEEELQKYIQESQALAKRSCGLFQKLGEYYLQNAFLVAYTKKAPQLTSSELMAITRKMAATAATCCQLSEDKLLACGEGAADIIIGHLCIRHEMTPVNPGVGQCCTSSYANRRPCFSSLVVDETYVPPAFSDDKFIFHKDLCQAQGVALQTMKQEFLINLVKQKPQITEEQLEAVIADFSGLLEKCCQGQEQEVCFAEEGQKLISKTRAALGV
modifications: yeast glycosylation
- suppression of resting immune cells (resting mouse T-cells; AFP as modulator of CsA-mediated signals): does not suppress resting immune cells
- effect of rhAFP on CsA treatment of resting mouse T-cells (resting mouse T-cells; FIG. 10C): cancellation of the cytotoxic effects of CsA treatment
- migration of HUVEC to the wounded area [1]: significantly activated the migration of HUVEC to the wounded area
- Maximum effect on proliferation of ATSC ([2]; 300 μg/ml of rhAFP, compared to untreated control): 50%
- Cell proliferation, change versus control ([2]; AFP 0.100 mg/ml, 2 passage): (+16%)
- Cell proliferation (cpm × 103) ([2]; AFP 0.100 mg/ml, 2 passage, control 17.8 ± 6.4): 20.7 ± 0.7 cpm × 103
- Cell proliferation, change versus control ([2]; AFP 0.100 mg/ml, 3 passage): (+7%)
- Cell proliferation (cpm × 103) ([2]; AFP 0.100 mg/ml, 3 passage, control 16.5 ± 1.5): 17.7 ± 5.3 cpm × 103
- Cell proliferation, change versus control ([2]; AFP 0.100 mg/ml, 4 passage): (+20%)
- Cell proliferation (cpm × 103) ([2]; AFP 0.100 mg/ml, 4 passage, control 0.83 ± 0.1): 1.0 ± 0.08 cpm × 103
- Cell proliferation, change versus control ([2]; AFP 0.300 mg/ml, 2 passage): (+44%)
- Cell proliferation (cpm × 103) ([2]; AFP 0.300 mg/ml, 2 passage, control 17.8 ± 6.4): 25.8 ± 4.1 cpm × 103
- Cell proliferation, change versus control ([2]; AFP 0.300 mg/ml, 3 passage): (+35%)
- Cell proliferation (cpm × 103) ([2]; AFP 0.300 mg/ml, 3 passage, control 16.5 ± 1.5): 22.4 ± 1.4 cpm × 103
- Cell proliferation, change versus control ([2]; AFP 0.300 mg/ml, 4 passage): (+50%)
- Cell proliferation (cpm × 103) ([2]; AFP 0.300 mg/ml, 4 passage, control 0.83 ± 0.1): 1.2 ± 0.24 cpm × 103
